Measurements published in patent US20170121318, “USE OF SMALL MOLECULE INHIBITORS TO KLF10 FOR MODULATION OF T REGULATORY CELLS AND CANCER IMMUNOTHERAPY” (THE BRIGHAM AND WOMEN'S HOSPITAL, INC., published 2017).

Biological target: KLF10 (TIEG1) (UniProt Q13118 Q13118:1-480)
Experiment: EMSA; 100 ng protein, 5 fmol probe, 5 mM MgCl2, poly(dI-dC), 0.05% NP-40, room temperature; binding inhibited by compounds #48, #48-15, #15-09
Conditions: tags: GST fusion (GST-KLF10); Novus Biologicals; label: 3' biotin
Procedure: The identified small molecule compounds were next examined for effects on KLF10 DNA-protein binding.
KLF10 recombinant protein was obtained from Novus Biologicals. […] End-labeled oligos (1 μmol/L) were annealed in a buffer system with 10 mM Tris, 50 mM NaCl, pH 8.0 by heating at 95° C. for 5 min, then slowly cooled to 65° C. for 30 min incubation, and cooled to room temperature. […] Compounds were incubated with KLF10 in a reaction system for 4 hrs at room temperature, and then Biotin-labeled probes were added for a 1 hr incubation.

Chain of KLF10 (TIEG1) (Q13118 whole entry, one chain of several): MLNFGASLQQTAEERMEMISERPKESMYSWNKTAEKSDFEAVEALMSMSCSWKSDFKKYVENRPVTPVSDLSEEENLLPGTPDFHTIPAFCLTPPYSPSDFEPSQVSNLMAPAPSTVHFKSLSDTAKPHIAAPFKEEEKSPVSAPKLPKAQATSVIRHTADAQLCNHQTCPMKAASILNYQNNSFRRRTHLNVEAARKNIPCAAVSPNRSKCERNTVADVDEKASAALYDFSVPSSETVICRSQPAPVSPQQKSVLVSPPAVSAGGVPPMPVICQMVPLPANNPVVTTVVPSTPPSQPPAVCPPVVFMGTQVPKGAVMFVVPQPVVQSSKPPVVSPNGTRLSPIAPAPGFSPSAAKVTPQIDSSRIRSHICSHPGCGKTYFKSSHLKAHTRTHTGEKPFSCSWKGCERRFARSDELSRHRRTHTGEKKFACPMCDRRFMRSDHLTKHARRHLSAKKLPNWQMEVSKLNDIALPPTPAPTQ

B1: KLF10 consensus DNA-binding sequence (dsDNA)
DNA 1: GCAGTGAAAAGGGGGTGTGTCAGGATGC
DNA 2: GCATCCTGACACACCCCCTTTTCACTGC
B1: binds.
